According to paper doi:10.1101/2021.04.25.441346 (bioRxiv, 2021):

Biological target: T1, GST-AFF1 (AUXIN RESPONSE FACTOR F-BOX1, At3g49150) (Arabidopsis thaliana, UniProt Q9M3B7 1-630)
T1 sequence (looked up): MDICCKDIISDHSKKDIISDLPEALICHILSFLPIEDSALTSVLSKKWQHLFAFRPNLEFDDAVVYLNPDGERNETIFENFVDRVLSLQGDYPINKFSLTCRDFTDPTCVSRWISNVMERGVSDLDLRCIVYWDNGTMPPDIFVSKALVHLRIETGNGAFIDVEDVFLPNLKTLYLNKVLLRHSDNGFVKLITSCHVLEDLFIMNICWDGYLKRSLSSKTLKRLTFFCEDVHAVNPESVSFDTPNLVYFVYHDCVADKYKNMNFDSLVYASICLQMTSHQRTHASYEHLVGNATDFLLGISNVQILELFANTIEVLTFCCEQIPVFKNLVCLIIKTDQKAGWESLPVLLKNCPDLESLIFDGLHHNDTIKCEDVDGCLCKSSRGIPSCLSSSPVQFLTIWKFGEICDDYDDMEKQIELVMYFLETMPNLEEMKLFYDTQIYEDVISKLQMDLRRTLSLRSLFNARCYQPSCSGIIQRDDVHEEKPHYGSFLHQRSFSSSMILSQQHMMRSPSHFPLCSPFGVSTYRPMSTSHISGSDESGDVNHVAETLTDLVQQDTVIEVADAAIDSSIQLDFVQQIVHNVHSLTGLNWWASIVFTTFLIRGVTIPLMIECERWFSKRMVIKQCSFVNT
Assay: pull-down

B1: His-ASK1 (ARABIDOPSIS SKP1-LIKE 1) (natural protein, Arabidopsis thaliana, UniProt Q39255 1-160, looked up)
chain: MSAKKIVLKSSDGESFEVEEAVALESQTIAHMVEDDCVDNGVPLPNVTSKILAKVIEYCKRHVEAAASKAEAVEGAATSDDDLKAWDADFMKIDQATLFELILAANYLNIKNLLDLTCQTVADMIKGKTPEEIRTTFNIKNDFTPEEEEEVRRENQWAFE
  binding result: binds
